Assay results reported in the supplement of paper PMC7877785.
± gives the uncertainty stated by the source.

Test: self-splicing fitness, log relative to wild type (ln ratio); higher = more splicing; Tetrahymena group I intron in knt gene, E. coli kanamycin selection, DiMSum; sequences stand for … in CUCUCU…GGAGGGAAAAGUUAUCAGGCAUGCACCUGGUAGCUAGUCUUUAAACCAAUAGAUUGCAUCGGUUUAAAAGGCAAGACCGUCAAAUUGCGGGAAAGGGGUCAACAGCCGUUCAGUACCAAGUCUCAGGGGAAACUUUGAGAUGGCCUUGCAAAGGGUAUGGUAAUAAGCUGACGGACAUGGUCCUAACCACGCAGCCAAGUCCUAAGUCAACAGAUCUUCUGUUGAUAUGGAUGCAGUUCACAGACUAAAUGUCGGUCGGGGAAGAUGUAUUCUUCUCAUAAGAUAUAGUCGGACCUCUCCUUAAUGGGAGCUAGCGGAUGAAGUGAUGCAACACUGGAGCCGCUGGGAACUAAUUUGUAUGCGAAAGUAUAUUGAUUAGUUUUGGAGUACUCGUGGUCG
Procedure, shortened: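 Colonies from six replicate transformations of E. coli BL21(DE3) were pooled and amplicon-sequenced on an Illumina HiSeq 2500. The library placed an intron with all eight P1ex-region nucleotides randomised inside the knt kanamycin-resistance gene on pET-22b(+), and cells grew overnight at 37°C or 30°C on LB agar with or without 25 μg/mL kanamycin (plus 100 μg/mL carbenicillin, 50 μM IPTG, 0.2% rhamnose). Fitness is the DiMSum error-weighted combination of wild-type-normalised replicate fold changes, kanamycin versus none.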

Sequence	self-splicing fitness (ln) (30 °C)	self-splicing fitness (ln) (37 °C)
GUCGAGCAAUAUUACGGCUG	-2.54 ± 0.25	-1.7 ± 0.39
GUCGAGCAAUAUUACGGUGA	-2.64 ± 0.15	-1.91 ± 0.2
GUCGAGCAAUAUUACGUGCC	-2.63 ± 0.29	–
GUCGAGCAAUAUUACGUGGC	-3.63 ± 0.2	-1.09 ± 0.17
GUCGAGCAAUAUUACGUGUG	-0.922 ± 0.12	-0.585 ± 0.17
GUCGAGCAAUAUUACGUUAG	-2.95 ± 0.27	-1.2 ± 0.2
GUCGAGCAAUAUUACGUUGA	-2.98 ± 0.16	-3.79 ± 0.34
GUCGAGCAAUAUUACGUUGG	-1.9 ± 0.16	-2.95 ± 0.47
GUCUAGCAAUAUUACGAGUA	-1.19 ± 0.21	-1.39 ± 0.22
GUCUAGCAAUAUUACGAUAC	0.218 ± 0.22	-0.815 ± 0.22
GUCUAGCAAUAUUACGAUGU	-1.11 ± 0.074	0.257 ± 0.086
GUCUAGCAAUAUUACGAUUG	–	-2.14 ± 0.26
GUCUAGCAAUAUUACGCACG	-1.27 ± 0.18	-1.14 ± 0.18
GUCUAGCAAUAUUACGCAUG	-0.786 ± 0.1	-0.64 ± 0.16
GUCUAGCAAUAUUACGCUAA	-0.815 ± 0.091	0.163 ± 0.093
GUCUAGCAAUAUUACGGCAA	-1.61 ± 0.25	0.441 ± 0.17
GUCUAGCAAUAUUACGGGGU	-3.56 ± 0.19	-2.04 ± 0.13
GUCUAGCAAUAUUACGUAAG	-1.02 ± 0.099	-0.654 ± 0.13
GUCUAGCAAUAUUACGUGAU	-1.04 ± 0.09	-0.766 ± 0.1
GUCUAGCAAUAUUACGUGCG	-1.76 ± 0.11	-1.27 ± 0.12
GUCUAGCAAUAUUACGUGGG	-2.01 ± 0.12	-1.64 ± 0.16
GUCUAGCAAUAUUACGUGGU	-2.5 ± 0.09	-0.907 ± 0.078
GUCUAGCAAUAUUACGUUAA	-0.894 ± 0.097	-0.331 ± 0.094
GUGAAGCAAUAUUACGACAA	0.0822 ± 0.12	0.396 ± 0.16
GUGAAGCAAUAUUACGACGA	0.184 ± 0.15	0.158 ± 0.22
GUGAAGCAAUAUUACGAGGC	-2.59 ± 0.25	-1.1 ± 0.22

Sequence	self-splicing fitness (ln) (30 °C)	self-splicing fitness (ln) (37 °C)
GUGAAGCAAUAUUACGAUCC	-3.08 ± 0.31	0.244 ± 0.18
GUGAAGCAAUAUUACGAUUG	-1.38 ± 0.11	-1.78 ± 0.14
GUGAAGCAAUAUUACGCAAC	-2.59 ± 0.17	-2.08 ± 0.22
GUGAAGCAAUAUUACGCACA	0.0998 ± 0.15	0.512 ± 0.18
GUGAAGCAAUAUUACGCACG	-0.996 ± 0.12	-0.777 ± 0.13
GUGAAGCAAUAUUACGCAUA	-0.646 ± 0.15	-0.0533 ± 0.17
GUGAAGCAAUAUUACGCCGC	-2.25 ± 0.16	-1.5 ± 0.26
GUGAAGCAAUAUUACGCCUG	-0.422 ± 0.091	0.015 ± 0.13
GUGAAGCAAUAUUACGCGUA	-0.298 ± 0.14	0.0699 ± 0.14
GUGAAGCAAUAUUACGCUCU	-1.79 ± 0.12	-0.652 ± 0.13
GUGAAGCAAUAUUACGGAUA	-1.37 ± 0.096	-1.13 ± 0.1
GUGAAGCAAUAUUACGGCCG	-1.03 ± 0.13	-0.435 ± 0.17
GUGAAGCAAUAUUACGGCGC	-0.501 ± 0.17	-0.89 ± 0.14
GUGAAGCAAUAUUACGGGAC	-1.8 ± 0.12	-0.623 ± 0.13
GUGAAGCAAUAUUACGGUAA	-0.519 ± 0.073	-0.169 ± 0.1
GUGAAGCAAUAUUACGUAUC	-1.08 ± 0.059	0.384 ± 0.068
GUGAAGCAAUAUUACGUCAC	–	-2.47 ± 0.48
GUGAAGCAAUAUUACGUCAU	-3.04 ± 0.2	-2.68 ± 0.28
GUGAAGCAAUAUUACGUCUA	0.147 ± 0.049	0.251 ± 0.066
GUGAAGCAAUAUUACGUGUG	-0.934 ± 0.089	-0.737 ± 0.11
GUGAAGCAAUAUUACGUUAU	-1.15 ± 0.08	-1.2 ± 0.11
GUGAAGCAAUAUUACGUUCA	-1.45 ± 0.078	-0.809 ± 0.09
GUGAAGCAAUAUUACGUUCU	-0.0481 ± 0.072	-0.218 ± 0.086
GUGAAGCAAUAUUACGUUGA	-1.56 ± 0.078	-0.398 ± 0.093
GUGCAGCAAUAUUACGACAU	-0.587 ± 0.013	-0.143 ± 0.032
GUGCAGCAAUAUUACGACCC	-0.76 ± 0.13	0.132 ± 0.18

Sequence	self-splicing fitness (ln) (30 °C)	self-splicing fitness (ln) (37 °C)
GUGCAGCAAUAUUACGAGAU	-3.67 ± 0.2	-1.98 ± 0.19
GUGCAGCAAUAUUACGAGUU	-2.49 ± 0.15	-1.62 ± 0.15
GUGCAGCAAUAUUACGCCAA	-1.41 ± 0.14	-1.72 ± 0.14
GUGCAGCAAUAUUACGCUCG	-0.5 ± 0.091	-0.883 ± 0.13
GUGCAGCAAUAUUACGGGAA	-3.67 ± 0.25	-1.9 ± 0.13
GUGCAGCAAUAUUACGGGGG	-4.19 ± 0.23	-2.58 ± 0.18
GUGCAGCAAUAUUACGUAUU	-1.7 ± 0.1	-1.78 ± 0.12
GUGCAGCAAUAUUACGUUCA	0.191 ± 0.072	-0.181 ± 0.081
GUGGAGCAAUAUUACGAACU	-0.836 ± 0.28	-1.14 ± 0.42
GUGGAGCAAUAUUACGACAU	-2.402 ± 0.022	-1.48 ± 0.038
GUGGAGCAAUAUUACGAGUC	–	-2.24 ± 0.31
GUGGAGCAAUAUUACGCAAU	-1.83 ± 0.1	-1.25 ± 0.13
GUGGAGCAAUAUUACGCAUG	-3.81 ± 0.21	-1.8 ± 0.15
GUGGAGCAAUAUUACGCCGU	0.631 ± 0.42	-1.15 ± 0.37
GUGGAGCAAUAUUACGCGCG	-1.79 ± 0.25	-2.11 ± 0.31
GUGGAGCAAUAUUACGCUCC	-1.83 ± 0.35	–
GUGGAGCAAUAUUACGGAUC	-1.1 ± 0.25	-0.583 ± 0.21
GUGGAGCAAUAUUACGGCCG	-3.44 ± 0.28	-2.03 ± 0.22
GUGGAGCAAUAUUACGGCGU	-1.29 ± 0.26	-0.557 ± 0.48
GUGGAGCAAUAUUACGGGAG	-3.74 ± 0.37	-1.8 ± 0.3
GUGGAGCAAUAUUACGGGCC	–	-0.665 ± 0.48
GUGGAGCAAUAUUACGGUCG	-4.21 ± 0.43	-1.5 ± 0.45
GUGGAGCAAUAUUACGGUGC	-2.76 ± 0.24	-1.93 ± 0.25
GUGGAGCAAUAUUACGUCAU	-4.2 ± 0.32	-3.24 ± 0.33
GUGGAGCAAUAUUACGUCGU	-1.65 ± 0.21	-1.48 ± 0.26
